Results from article PMC2173603.

Target: L1-CFP (CFP tagged to the COOH terminus of human L1-CAM) (human) (UniProt P32004)
Test: FRET or BRET

Sequence of UniProt P32004 (P32004 20-1257): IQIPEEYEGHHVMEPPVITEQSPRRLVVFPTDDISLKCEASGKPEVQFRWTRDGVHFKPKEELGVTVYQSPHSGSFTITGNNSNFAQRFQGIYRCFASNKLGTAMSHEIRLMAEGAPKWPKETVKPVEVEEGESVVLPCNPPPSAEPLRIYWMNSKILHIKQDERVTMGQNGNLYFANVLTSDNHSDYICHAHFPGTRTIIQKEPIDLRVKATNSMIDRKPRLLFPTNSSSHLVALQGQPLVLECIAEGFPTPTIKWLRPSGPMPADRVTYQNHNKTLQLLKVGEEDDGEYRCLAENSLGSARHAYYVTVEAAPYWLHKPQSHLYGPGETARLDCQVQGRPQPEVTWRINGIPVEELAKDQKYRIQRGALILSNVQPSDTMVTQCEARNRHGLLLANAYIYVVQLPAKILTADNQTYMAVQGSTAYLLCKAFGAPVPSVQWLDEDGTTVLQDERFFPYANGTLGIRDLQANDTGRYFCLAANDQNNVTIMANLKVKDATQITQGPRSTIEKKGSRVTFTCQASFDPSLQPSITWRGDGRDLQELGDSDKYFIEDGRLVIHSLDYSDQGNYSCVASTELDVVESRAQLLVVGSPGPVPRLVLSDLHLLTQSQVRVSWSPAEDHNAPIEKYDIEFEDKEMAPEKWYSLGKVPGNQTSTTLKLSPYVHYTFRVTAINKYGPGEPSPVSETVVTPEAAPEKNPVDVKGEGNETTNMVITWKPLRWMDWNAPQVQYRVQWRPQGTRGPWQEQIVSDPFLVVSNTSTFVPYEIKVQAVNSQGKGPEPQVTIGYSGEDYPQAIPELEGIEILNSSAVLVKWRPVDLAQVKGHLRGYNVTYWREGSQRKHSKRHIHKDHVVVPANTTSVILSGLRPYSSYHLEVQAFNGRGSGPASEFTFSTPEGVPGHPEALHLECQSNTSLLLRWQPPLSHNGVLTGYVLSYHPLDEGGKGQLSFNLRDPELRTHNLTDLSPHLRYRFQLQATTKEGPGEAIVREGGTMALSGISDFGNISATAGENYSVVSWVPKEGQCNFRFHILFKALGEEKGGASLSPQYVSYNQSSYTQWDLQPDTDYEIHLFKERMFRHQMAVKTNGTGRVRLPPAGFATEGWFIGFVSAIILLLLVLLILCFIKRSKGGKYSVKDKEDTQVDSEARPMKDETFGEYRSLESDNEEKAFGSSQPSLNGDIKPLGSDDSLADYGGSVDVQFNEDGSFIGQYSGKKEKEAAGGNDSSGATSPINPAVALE

For “Venus-ankyrinB (Venus tagged to the NH2 terminus of human ankyrinB) (natural protein)”, the percent of ankyrinB clusters with FRET^E >8% was 29.4%.
